Results from patent US20170129957A1 (BERGENBIO ASA, published 2017).

T1: recombinant human Axl-Fc chimera (R&D Systems, Cat. no. 154-AL) (human, UniProt P30530 26-451)
T1 construct: Bought reagent; also called rhAxl-Fc; rhAxl; not shown: human IgG1 Fc domain
T1 sequence: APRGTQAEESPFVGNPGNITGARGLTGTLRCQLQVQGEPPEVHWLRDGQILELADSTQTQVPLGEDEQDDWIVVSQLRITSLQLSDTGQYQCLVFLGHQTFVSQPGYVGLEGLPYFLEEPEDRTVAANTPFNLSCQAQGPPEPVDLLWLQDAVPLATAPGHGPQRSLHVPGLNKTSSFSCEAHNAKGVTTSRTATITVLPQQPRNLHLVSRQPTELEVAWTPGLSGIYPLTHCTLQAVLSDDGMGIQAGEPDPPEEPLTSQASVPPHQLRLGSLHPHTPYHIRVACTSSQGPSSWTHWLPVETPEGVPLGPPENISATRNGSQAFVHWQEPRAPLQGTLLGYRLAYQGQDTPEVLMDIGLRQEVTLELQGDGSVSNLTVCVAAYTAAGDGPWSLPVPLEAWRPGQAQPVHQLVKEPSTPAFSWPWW

T2: recombinant human Mer-Fc chimera (R&D Systems, Cat. no. 891-MR) (human, UniProt Q12866 21-499, limits assumed)
T2 construct: Bought soluble Fc chimera; also called rhMer-Fc; rhMer; Fc part of the bought chimera not given
T2 sequence (looked up): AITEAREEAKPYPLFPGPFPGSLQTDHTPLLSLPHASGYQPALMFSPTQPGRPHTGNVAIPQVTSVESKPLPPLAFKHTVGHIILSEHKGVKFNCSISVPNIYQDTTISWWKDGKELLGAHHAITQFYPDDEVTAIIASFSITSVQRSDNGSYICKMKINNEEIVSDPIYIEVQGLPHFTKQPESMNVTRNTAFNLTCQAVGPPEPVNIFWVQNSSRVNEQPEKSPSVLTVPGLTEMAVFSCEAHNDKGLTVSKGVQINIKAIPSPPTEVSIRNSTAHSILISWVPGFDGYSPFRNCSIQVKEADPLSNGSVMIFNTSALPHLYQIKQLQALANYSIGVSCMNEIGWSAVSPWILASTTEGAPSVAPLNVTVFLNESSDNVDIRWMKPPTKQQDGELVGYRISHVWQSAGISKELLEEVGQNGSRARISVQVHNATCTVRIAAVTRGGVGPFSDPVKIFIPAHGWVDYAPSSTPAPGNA

T3: human Axl receptor of Axl+ human cell lines (MDA-MB-231, NCI-H1299, HeLa) (human, UniProt P30530 26-894)
T3 construct: also called Axl+ cells; Axl-positive cells
T3 sequence: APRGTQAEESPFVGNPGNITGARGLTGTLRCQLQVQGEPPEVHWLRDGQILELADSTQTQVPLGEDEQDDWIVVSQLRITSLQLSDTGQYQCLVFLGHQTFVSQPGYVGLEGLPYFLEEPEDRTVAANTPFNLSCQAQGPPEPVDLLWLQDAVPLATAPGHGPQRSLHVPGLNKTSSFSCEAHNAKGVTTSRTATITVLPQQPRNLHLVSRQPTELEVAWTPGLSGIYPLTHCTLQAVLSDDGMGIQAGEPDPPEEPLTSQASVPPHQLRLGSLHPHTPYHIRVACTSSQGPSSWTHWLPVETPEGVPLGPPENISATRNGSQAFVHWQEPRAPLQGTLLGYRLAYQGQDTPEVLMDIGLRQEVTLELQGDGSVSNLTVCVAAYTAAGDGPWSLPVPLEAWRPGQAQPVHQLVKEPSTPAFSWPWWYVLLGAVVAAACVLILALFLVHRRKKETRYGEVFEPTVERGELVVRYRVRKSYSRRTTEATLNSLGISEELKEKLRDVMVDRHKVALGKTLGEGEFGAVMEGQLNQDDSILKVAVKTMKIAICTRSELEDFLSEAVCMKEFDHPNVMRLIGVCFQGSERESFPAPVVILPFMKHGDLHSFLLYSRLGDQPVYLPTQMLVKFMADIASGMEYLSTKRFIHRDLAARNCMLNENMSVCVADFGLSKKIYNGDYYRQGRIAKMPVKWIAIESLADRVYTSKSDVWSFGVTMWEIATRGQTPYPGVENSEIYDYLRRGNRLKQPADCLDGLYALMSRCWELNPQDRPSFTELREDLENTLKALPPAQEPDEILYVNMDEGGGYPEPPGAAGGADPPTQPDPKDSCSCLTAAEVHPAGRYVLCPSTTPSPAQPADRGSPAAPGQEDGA

T4: recombinant mouse Axl-Fc chimera (R&D Systems, Cat. no. 854-AX) (mouse, UniProt Q00993 19-443)
T4 construct: Bought soluble Fc chimera; also called rmAxl-Fc; rmAxl; Fc part of the bought chimera not given
T4 sequence: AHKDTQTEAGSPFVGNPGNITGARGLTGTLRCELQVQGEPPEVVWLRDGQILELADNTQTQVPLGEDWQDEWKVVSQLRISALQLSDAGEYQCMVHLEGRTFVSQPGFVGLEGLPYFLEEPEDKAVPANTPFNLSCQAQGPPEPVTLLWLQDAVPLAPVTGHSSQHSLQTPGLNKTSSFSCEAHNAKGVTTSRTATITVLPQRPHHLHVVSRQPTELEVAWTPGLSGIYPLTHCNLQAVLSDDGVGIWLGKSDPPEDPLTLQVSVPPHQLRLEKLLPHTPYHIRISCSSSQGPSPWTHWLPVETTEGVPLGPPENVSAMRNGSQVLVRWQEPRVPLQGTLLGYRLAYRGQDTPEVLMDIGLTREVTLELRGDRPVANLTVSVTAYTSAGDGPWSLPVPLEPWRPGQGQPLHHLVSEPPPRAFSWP

T5: recombinant human Tyro3/Dtk-Fc chimera (R&D Systems, Cat. no. 859-DK) (human, UniProt Q06418 41-428)
T5 construct: Bought soluble Fc chimera; also called rhTyro3-Fc; rhTyro3; Fc part of the bought chimera not given
T5 sequence: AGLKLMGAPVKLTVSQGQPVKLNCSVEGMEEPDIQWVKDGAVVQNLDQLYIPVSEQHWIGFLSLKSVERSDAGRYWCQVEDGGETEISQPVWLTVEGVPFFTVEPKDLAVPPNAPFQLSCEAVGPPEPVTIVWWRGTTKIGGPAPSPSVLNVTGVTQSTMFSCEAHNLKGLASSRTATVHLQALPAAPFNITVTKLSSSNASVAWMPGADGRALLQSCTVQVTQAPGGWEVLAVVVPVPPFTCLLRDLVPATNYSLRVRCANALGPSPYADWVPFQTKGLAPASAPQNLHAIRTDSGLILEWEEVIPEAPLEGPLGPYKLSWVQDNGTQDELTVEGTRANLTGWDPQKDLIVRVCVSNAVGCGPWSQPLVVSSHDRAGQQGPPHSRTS

B1: mouse anti-Axl monoclonal antibody 1H12 (antibody, V domains shown)
VH: EVKLVESGGDLVKPGGSLKLSCAASGFTFSSYGMSWVRQTPDKRLEWVATISSGGSYTYYPDSVKGRFTISRDNAKNTLYLQMSSLKSEDTAMYYCARHPIYYTYDDTMDYWGQGTSVTVSS
VL: DIVLTQSPAIMAASPGEKVTMTCSASSSVSSGNFHWYQQKPGTSPKLWIYRTSNLASGVPARFSGSGSGTSYSLTISSMEAEDAATYYCQQWSGYPWTFGGGTKLEIK
notes: also called MAb 1H12; m 1H12
B2: chimeric (mouse variable/human constant IgG1) monoclonal antibody ch1H12 (antibody, V domains shown)
VH: B1 VH
VL: B1 VL
notes: also called chimeric MAb ch1H12; chimeric monoclonal antibody 1H12; not shown: constant domains of the human IgG1 heavy chain; human light chain constant domain (C-kappa)

What was measured:
[1] = biological target: T1, recombinant human Axl-Fc chimera (R&D …); assay: SPR (Biacore 3000, 25 °C), calculated as ln2/koff
[2] = biological target: T1, recombinant human Axl-Fc chimera (R&D …); assay: SPR (Biacore 3000, 25 °C), rhAxl-Fc immobilised at 190 RU, 1H12 1.3-666.7 nM, KD as koff/kon
Experimental: (§1) After each cycle, the surface was regenerated by 30 sec injection of a regeneration solution (10 mM HCl, 1 M NaCl) at flow rate 50 μL/min.
(§2) The equilibrium dissociation constant (KD) was calculated as the koff/kₒₙ ratio.

[3] = biological target: T1, recombinant human Axl-Fc chimera (R&D …); assay: SPR (Biacore 3000, 25 °C), rhAxl-Fc immobilised at 190 RU, 1H12 1.3-666.7 nM
Experimental: as §1
(§3) The equilibrium dissociation constant (KD) was calculated as the koff/kₒₙ ratio. The half-life (t_{1/2}) of the formed antibody-antigen complexes was calculated as the In2/koff ratio.

[4] = biological target: T2, recombinant human Mer-Fc chimera (R&D …); assay: SPR (Biacore 3000), rhMer-Fc immobilised on CM5 at 303.6 RU, MAb 1H12 injected
Experimental: (§4) All binding experiments were performed using Biacore 3000 instrument (GE Healthcare) at 25° C. […] The Biacore run was performed in an automatic mode using Binding analysis wizard.

[5] = biological target: T3, human Axl receptor of Axl+ human cell …; assay: flow cytometry on MDA-MB-231 cells, detection with APC-conjugated donkey anti-mouse IgG (H+L) F(ab')2
Experimental: The cell staining was measured using Accuri C6 flow cytometer (BD Biosciences).
Trypsin was quenched by adding into the tissue flask the complete medium followed by washing the cells with PBS. During the washing steps, the cells were collected by centrifugation at 200 g for 5 min. The antibody was diluted for total concentration in PBS containing 0.02% bovine serum albumin (BSA). Cell staining was performed using 200 μL of cell suspension comprising 10⁵ cells for 20 min at room temperature. The cell-bound antibodies were detected with APC-conjugated donkey anti-human or anti-mouse, respectively, IgG (H+L) F(ab′)₂ fragments (Jackson ImmunoResearch). After two washing steps with PBS/0.02% BSA, the cells were resuspended in 200 μL and kept on ice before analysis on Accuri C6 flow cytometer (BD Biosciences).

[6] = biological target: T4, recombinant mouse Axl-Fc chimera (R&D …); assay: SPR (Biacore 3000), rmAxl-Fc immobilised on CM5 at 2,115.9 RU, MAb 1H12 injected [upper panel 1H12]
Experimental: The binding experiments were performed using Biacore 3000 instrument (GE Healthcare) at 25° C. […] The Biacore run was performed in an automatic mode using Binding Analysis wizard.

[7] = biological target: T1, recombinant human Axl-Fc chimera (R&D …); assay: SPR (Biacore 3000), rhAxl-Fc immobilised on CM5 at 190 RU, MAb 1H12 at 1.3-666.7 nM, 25 °C, BIAevaluation fit [table under the sensorgrams]
Experimental: as §1, §2

[8] = biological target: T5, recombinant human Tyro3/Dtk-Fc chimera …; assay: SPR (Biacore 3000), rhTyro3/Dtk-Fc immobilised on CM5 at 364.0 RU, MAb 1H12 injected
Experimental: as §4

[9] = biological target: T1, recombinant human Axl-Fc chimera (R&D …); assay: SPR (Biacore 3000), rhAxl-Fc immobilised on CM5 at 190 RU, ch1H12 at 1.3-666.7 nM, 25 °C, 1:1 Langmuir fit [table under the sensorgrams]
Experimental: as §1, §3

[10] = biological target: T1, recombinant human Axl-Fc chimera (R&D …); assay: SPR (Biacore 3000, 25 °C), comparison of KD with parental murine 1H12
[11] = biological target: T1, recombinant human Axl-Fc chimera (R&D …); assay: SPR (Biacore 3000, 25 °C), rhAxl-Fc immobilised at 190 RU, ch1H12 1.3-666.7 nM, 1:1 Langmuir model, KD as koff/kon
Experimental: as §1, §2

[12] = biological target: T1, recombinant human Axl-Fc chimera (R&D …); assay: SPR (Biacore 3000, 25 °C), rhAxl-Fc immobilised at 190 RU, ch1H12 1.3-666.7 nM, 1:1 Langmuir model
Experimental: as §1, §2

[13] = biological target: T3, human Axl receptor of Axl+ human cell …; assay: flow cytometry on MDA-MB-231 cells, detection with APC-conjugated donkey anti-human IgG (H+L) F(ab')2

Row | Binder | half-life of the 1H12/Axl complex [1] | Kd [2] | koff [3] | binding result [4] | EC50 (read off the curve) [5] | binding result [6] | kon [7] | binding result [8] | kon [9] | half-life of the ch1H12/Axl complex [1] | fold lower KD than the parental murine antibody 1H12 [10] | Kd [11] | koff [12] | EC50 (read off the curve) [13]
1 | B1 | 18 h | 0.0498 nM | 1.07e-05 s⁻¹ | no binding (tested: 10 µg/mL) | ~0.9 nM | no binding (tested: 10 µg/mL) | 214000 M⁻¹ s⁻¹ | no binding (tested: 10 µg/mL) |  |  |  |  |  | 
2 | B2 |  |  |  |  |  |  |  |  | 271000 M⁻¹ s⁻¹ | 64.4 h | 4.5 fold | 0.011 nM | 2.99e-06 s⁻¹ | ~0.6 nM
